Test results taken from the nanobody polyreactivity screen of Harvey et al. (2022).

assay: yeast display, Sf9 membrane polyspecificity reagent, FACS + sequencing; frameworks hold sequencing errors
In short: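 Polyreactivity labels are assigned by the sorting gate from which each nanobody was recovered. The gates were low and high (top ~1%), set on anti-HA fluorescence for expression and streptavidin fluorescence for reagent binding. Before sorting, galactose-induced (36–48 hours) yeast display cells were stained for 1 hour at 4 °C with 10% biotinylated, detergent-solubilized Sf9 membrane reagent.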

Row | Sequence | polyreactivity (PSR sort gate)
1 | QVQLVESGGGLVQAGGSLRLSCAASGRIFTPYVMGWYIQAPGKERELVADINLSGDSTSYADSVKGRFTISRDNAKNTVYLQMNSLKPEDTAVYYCAADFWLVSFQWDFEYDYWGQGTHVTVSS | low polyreactivity
2 | QVPLVEAGGGLVQAGGSLRVSCAASGITFQLYGMGWYSQAPGKERELVAAITGSDGITYYADSVKGRFTISLDNAKNTVYLPMNSLKPEDTAVYYCAAEWWDYWNEYDYWGQGTQVTVSS | high polyreactivity
3 | HVQLVESAGGLVQAGGSLRVSCAASGRTFVENAMGWYRQAPGKERELVAAITYRGGRTFYADSVKGRFTISLDNAKNTVYLQMNSLTPEETAVYYCNAVRRTGGHGDYWGHGTQVTVSS | high polyreactivity
4 | QVQLVESGGGLVQAGGSLRLSCAASGFIFDVYAMGWYRQAPGKERELVAAISSSGGRTYYADSVKGRFTISRDNAKNTVYLQMNSLKPEDSAVYYCAAKTHSRTKVYTADYWGQGTQVTVSS | high polyreactivity
5 | QVQLVESGGGLVQAGGSLRLSCASSGRISYRNAMGWYRQAPGKERELVAAISSSGDSTYYADAVKGRFTISRDNAKNTVYLQMNSLKPEDTAVYYCAARHSAVYYGYHRYYYWGQGTQVTVSS | high polyreactivity
6 | QVQLVESGGGLVQAGGSLRLSCAASGSIFSRNAMGWYRQAPGKEREFVARISWSSTSTNYADSVKGRFTISRDNAKNTVYLQMNSLKPEDTAVYYCAADFRGDRRFDYWGQGTQVSVSS | low polyreactivity
7 | QVQLVESGGGLVQAGGSLRLSCAASGSIFSYYAMGWYRQAPGKERELVATITSSGSTYADSVKGRFTISRDNAKNTVYLQMNSLKPEDTAVYYCNADSGYSEYWGVDVAYDYWGQGTQVTVSS | low polyreactivity
8 | QVQLVESGGGLVQAGGSLRLSCAASGSTFVYAMAWYSQAPGKERELVAAITTGDSTYYADSVKGRFTISRDNAKNTVYLQMNSLKPEDTAVYYCAAQWYTRYGEYGYWGQGTQVTVSS | low polyreactivity
9 | QVQLVESGGGLVQAGGSLRLSCASSGSIFRRYAMGWYRQATGKERELVAAISSNGGSTYYADSVKGRFTISRDNAKNTVYLQLNSLKPEDTAGYYCNAQVVHYRVSSVITYTIYDYWGQGTQVTVSS | high polyreactivity
10 | QVQLVESGGGLVQAGGSLRLSCAASGSIFYPYAMGWYRQAPGKERELVAAITSSTGSTYYADSVKGRFTISRDHAKNTVYLQMNSLKPEDTAVYYCAAAGYWSYFMMDYWGQGTQVTVSS | low polyreactivity
11 | QVQLVESGGGLDQAGGSLRLSCAASGSISVWYVMGWYRQAPGKERELVAAITRSGGSTFYADSLKGRFTISRDNAKNTVYLQMNSLKPEDTAVYYCASDGGVAWGYGDWGQGTQVTVSS | low polyreactivity
12 | QVQLVESGGGLVQEGGSLRLSCADSGRIFSTNAMGWSRQAPGKERELVAAISWSTGSTYYADSVKGRFTISRDNAKNTVYLQMNSLKPEDTAVYYCAASYTRTYWAYSYGYWGQGTQVTVSS | high polyreactivity
13 | QLQLVESGGGLVQAGGSLRLSCAASGYIFEFYAMGWYSQARGKERELVDAIRWNGGTYYADSVKGRFTISRDNAKNTVYLQMNSLKPEDTAVYDCSASRYYRYKIGYVSRAMDYWGQGTQVTVSS | high polyreactivity
14 | QLQLVESGGGLVQAGGRLRLSSAASGRTFRYYAMGWYRQAAGKERELVASITSGGRTYYADSVKGRFTISRDNAKNTVYLQMNSLKPEDTAVYYCAADRFGIGGKRGNDYWGQGTQVTVSS | high polyreactivity
15 | QVQLVESGGGLVQAGGSLRLSCAASGSTFQFYAMGWYRHAPGKERELVAAIDGSDGDTYYADSVKGRFTISRDNAKNTVYLQMNSLKPEDTAVYYCNADRDALVGYDYDYWGQGTQVTVSS | low polyreactivity
16 | QVQLVESGGGLVQAGGSLRLSCAASGSIFYPYVMGRYRQAPGKEREFVAAITTSGGTTYYADSVKGRFTISLDNAKNTVYLKMNSLKPEDTAVYDCAARGTVPGWAIYDYWGQGTEVTVSS | low polyreactivity

Row | Sequence | polyreactivity (PSR sort gate)
17 | QVQLVESGGGLVQAGGSLRLSCAASGSIFWYYVMGWYRQAPGKERELVAAITISGAGTYYADSVKGRFTISRDNAKNTVYLQMNSLKPEDTAVYYCAARLLGHFYPFFLQGLSGFDYWGQGTQVTVSS | low polyreactivity
18 | QVQLVESGGGLVQAGGSLRLSCAASGRTFPWYGKGWYRPAPGKERELVAAISRTGGNTYYADSVKGRFTISRDNAKNTVYLQMNSLKPEDTAVYYCNAGYYSNRYYFYDYGYWGQGTQVTVSS | high polyreactivity
19 | QVQLVESGGGLVQAGGSIRLSCSASGNIFSDNAMGWYRQAPGKERELGAAITSGGSTNYADSVNGRFTISRDNAKNTVYLQMNSLKPEDTAVYYCAADRGFYPSLWDYDYWGQGTQVTVSS | low polyreactivity
20 | QVQLVESGGGLVQAGGSLRLSCAASGFIFRQYAMGWYRQAPGKERELVAAISVGGGRTYYADSVKGRFTISRDNAKNTVYLQMNSLKPEVTAVYYCAASNWHSRGSGEYYWGQGTQVTVSS | high polyreactivity
21 | QDQLVESGGGLVQAGGSLRLTCAASGSIIVRYAMGWYRQAPGKERELVASISKRGGSTYYADSVKGRFTISRDNAKNTVYLQMNSLKPEDTAVYYCAAVGYYLVKFDYWGQGTQVTVSS | high polyreactivity
22 | QVQLVESGGGLVQAGGSLRLSCAASGRIFGPYTMGWYRQAPGKERELVAAIRSSGTSTYYADSVKGRFTISRDNAKNTVYLQMNSLKPEDTAVYYCNRARSSSRYDYWGQGTQVTVSS | low polyreactivity
23 | QVQLEESGGGLVQAGGSLRLSCAASGITFFHYAMGWSRPAPGKERELVAAITWRGSSTYYADSVKGRFTMSRDNAKNTVYLQMNSLKPEDTAVYYCNAEVGYYEYDYWGQGTQVTVSS | high polyreactivity
24 | QVQLQESGGGLVQAGGSMRLSCAASGYNTIEVTRAGFSRRRAKNANLLPLLITVVLPIKRIAQNTISRDNAKNTVYLQMNSLKPEDTAVYNCAANTIGTDLYEYWGQGTQATVSS | low polyreactivity
25 | QVQLVETGGGLVQAGGSLRLSCAASGFIFGYYAMGWYRQAPGKERELVADITSGGSTYYADSVKGRFIISRDNAKNTVYLQMNSLKPEDTAVYYCNKAWELVSQSLYYTEYNYWGQGTQVTVSS | low polyreactivity
26 | QVQLVESGGGLVQAGGSLRLICAASGSTFSQYTMGWYRQAPGKERELVAAITGSGGGTYYADSVKGRFTISRDNAKNTVYLHMESLKPVDTAVYYCAALTLNEKYTSRRGVYYWGQGSQVTVSS | high polyreactivity
27 | QVQLVESGGGLVQAGGSLRLSCAASGRIFTPNAMGWYRQAPGKERELVAAITWSGDNTYADSVKGRFTISRDNAKNTVYLQMNSLKPEDTAVYYCAAAYGYGHKKYGYWGQGTQVTVSS | low polyreactivity
28 | QVQLVESARGLVQAGGSLRLSCAASGFTFYKYAMGWYRQAPGKETELVDAISSGGRTNYADSVKGRFTISRDNAMNTVYLHMNSLNPEDTAVYFCAADRSYRSGYNYWGQGTQVTVSS | high polyreactivity
29 | QVQLVESGGGLVQAGGSLRLSCAASGIIFRRYAMGLYRQAPGKERELVAAISSRGGSTYYADSVKGRFTISRDNAKNTVYLQMNCLKPEDTAVYFCAKGFSGTGGSGDFGYWGQGTQETVSS | high polyreactivity
30 | QVQLVESGGGLVQAGGILRLSCAASGFIFVDYVMGWSRQAPGKERELVAAINRNGGRPYYADSVKGRFTISRDNEKNTVYLQMNRLKPEDTAVYYCAAVYRSDRYHWYYYWGQGTQVTVSS | high polyreactivity
31 | QVQLVESGGGLVQAGGSLRLSCAASGSIFGYYAMGWYRQAPGKERELVAAINSSGGSTYYADSVKGRFTISRDNAKNTVYLQMNSLKPDDTAVYYCAVRTRYKFNYWGQGTQVTVSS | low polyreactivity
